The values that follow are results of earlier work, collected in publication PMC10404681, “Intrinsic catalytic properties of histone H3 lysine-9 methyltransferases preserve monomethylation levels under low S-adenosylmethionine” (The Journal of Biological Chemistry, 2023).

The series deals with histone H3 peptide (Homo sapiens) (UniProt P68431).

Sequence of EHMT1/EHMT2 heterodimer (Q9H9B1 2-1298): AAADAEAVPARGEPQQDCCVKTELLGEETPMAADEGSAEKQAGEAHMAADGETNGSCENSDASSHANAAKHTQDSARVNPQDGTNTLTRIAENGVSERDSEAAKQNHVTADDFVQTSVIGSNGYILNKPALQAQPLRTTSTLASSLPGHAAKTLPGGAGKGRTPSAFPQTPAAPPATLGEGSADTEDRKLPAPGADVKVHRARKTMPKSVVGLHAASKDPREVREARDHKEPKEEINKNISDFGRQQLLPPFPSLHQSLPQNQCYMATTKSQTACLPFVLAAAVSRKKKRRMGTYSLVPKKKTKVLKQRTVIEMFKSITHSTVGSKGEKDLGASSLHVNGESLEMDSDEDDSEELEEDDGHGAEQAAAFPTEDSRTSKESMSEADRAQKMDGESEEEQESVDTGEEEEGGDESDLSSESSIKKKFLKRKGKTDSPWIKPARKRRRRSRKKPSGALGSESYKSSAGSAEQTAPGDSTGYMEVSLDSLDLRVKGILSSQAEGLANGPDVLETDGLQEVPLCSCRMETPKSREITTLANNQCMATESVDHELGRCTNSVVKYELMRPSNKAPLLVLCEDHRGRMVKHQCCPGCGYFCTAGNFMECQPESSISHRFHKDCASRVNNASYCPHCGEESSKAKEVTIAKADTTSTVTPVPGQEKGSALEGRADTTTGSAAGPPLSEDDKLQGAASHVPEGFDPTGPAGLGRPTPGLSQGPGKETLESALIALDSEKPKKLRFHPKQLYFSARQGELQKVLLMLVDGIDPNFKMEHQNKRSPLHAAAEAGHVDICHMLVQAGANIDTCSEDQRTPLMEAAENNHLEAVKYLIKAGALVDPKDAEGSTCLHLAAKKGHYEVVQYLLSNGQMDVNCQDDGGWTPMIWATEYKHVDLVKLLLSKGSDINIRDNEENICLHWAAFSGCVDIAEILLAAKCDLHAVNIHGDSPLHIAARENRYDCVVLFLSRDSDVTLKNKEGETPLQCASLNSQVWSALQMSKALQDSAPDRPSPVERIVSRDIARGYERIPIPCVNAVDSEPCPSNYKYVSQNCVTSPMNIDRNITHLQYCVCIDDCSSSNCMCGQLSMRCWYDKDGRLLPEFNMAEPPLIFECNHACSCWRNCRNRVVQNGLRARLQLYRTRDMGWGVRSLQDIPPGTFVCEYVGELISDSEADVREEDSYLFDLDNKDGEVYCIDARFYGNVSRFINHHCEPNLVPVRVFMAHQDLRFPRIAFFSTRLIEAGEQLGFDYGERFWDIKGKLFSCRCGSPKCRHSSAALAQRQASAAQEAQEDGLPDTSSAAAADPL
Sequence of EHMT1/EHMT2 heterodimer (Q96KQ7 2-1210, further chain): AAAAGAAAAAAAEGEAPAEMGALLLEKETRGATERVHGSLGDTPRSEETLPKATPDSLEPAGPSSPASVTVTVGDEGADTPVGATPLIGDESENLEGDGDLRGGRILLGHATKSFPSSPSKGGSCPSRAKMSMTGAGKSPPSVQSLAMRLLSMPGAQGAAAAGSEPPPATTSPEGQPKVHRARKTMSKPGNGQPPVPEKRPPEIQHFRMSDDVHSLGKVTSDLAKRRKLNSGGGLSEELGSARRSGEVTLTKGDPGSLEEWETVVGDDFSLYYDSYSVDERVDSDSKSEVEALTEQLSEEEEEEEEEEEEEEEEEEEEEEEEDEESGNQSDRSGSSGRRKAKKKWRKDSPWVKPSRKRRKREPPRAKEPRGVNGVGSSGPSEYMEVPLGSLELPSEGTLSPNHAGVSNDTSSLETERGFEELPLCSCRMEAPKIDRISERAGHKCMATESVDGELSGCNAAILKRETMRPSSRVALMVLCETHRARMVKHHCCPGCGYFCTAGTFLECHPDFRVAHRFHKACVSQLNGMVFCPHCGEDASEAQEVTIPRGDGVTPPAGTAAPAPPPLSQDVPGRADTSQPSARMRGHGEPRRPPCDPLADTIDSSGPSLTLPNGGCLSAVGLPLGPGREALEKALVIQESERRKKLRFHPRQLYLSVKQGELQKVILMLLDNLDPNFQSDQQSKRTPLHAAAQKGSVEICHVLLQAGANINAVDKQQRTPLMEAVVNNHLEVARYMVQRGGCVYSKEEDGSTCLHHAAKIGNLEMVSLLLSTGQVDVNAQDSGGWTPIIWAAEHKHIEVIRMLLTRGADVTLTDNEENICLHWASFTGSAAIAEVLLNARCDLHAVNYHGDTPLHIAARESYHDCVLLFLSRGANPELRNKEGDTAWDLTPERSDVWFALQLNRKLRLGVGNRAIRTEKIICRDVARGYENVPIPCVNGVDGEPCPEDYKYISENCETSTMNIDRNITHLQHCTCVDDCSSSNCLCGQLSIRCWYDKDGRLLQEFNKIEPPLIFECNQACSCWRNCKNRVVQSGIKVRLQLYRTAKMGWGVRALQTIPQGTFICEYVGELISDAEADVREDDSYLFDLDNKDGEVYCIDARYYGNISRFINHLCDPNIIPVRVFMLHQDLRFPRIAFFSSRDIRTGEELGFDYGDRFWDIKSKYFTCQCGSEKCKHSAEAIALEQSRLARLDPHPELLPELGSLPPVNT

Turning to “EHMT1/EHMT2 heterodimer (from UniProt Q9H9B1)”, the Kd is 7.35 µM.

As usually defined, the Kd is the free concentration of one partner at which half of the binding sites on the other are occupied at equilibrium, for simple one-to-one binding.
